The values below come from PMC5159797.

For one assay, the target named is MBP-Kif2b-NT. Kind of assay: GST pull-down, anti-MBP blot quantified. The settings on record: purified MBP-Kif2b deletions; parent: 1.0; read off a plot.
The target in another assay is MBP-Kif2b-CT. Kind of assay: GST pull-down, anti-MBP blot quantified. The settings on record: purified MBP-Kif2b deletions; n = 3; parent: 1.0; read off a plot.

With “GST-SKAP (from UniProt Q9Y448) S232A; S237A; T294A”, the ratio to parent with MBP-Kif2b-NT worked out at 1.1; with MBP-Kif2b-CT, 0.42.

As for “GST-SKAP (from UniProt Q9Y448) S232E; S237E; T294E”, the ratio to parent was found to be 15 with MBP-Kif2b-NT and 0.87 in the assay with MBP-Kif2b-CT.
